Experimental data published in patent US20240132624A1 (Ablynx, published 2024).

Experiments:
[1] = target: T1, human FcRn/b2M (human, UniProt P61769 21-119, biotinylated); assay: SPR pH 6.0;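 note: surface plasmon resonance kinetics at 25 °C, diluted periplasmic extracts injected over immobilized ligand surfaces, 120 s association then 600–3600 s dissociation, running buffer containing 150 mM NaCl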
T1 construct: bought recombinant biotinylated protein (ACRO FCM-H82W4 or Immunitrack ITF01); also called hFcRn; hFcRn/hb2M
Protocol: (§1) All kinetic measurements have been performed on ProteOn XPR36 (BioRad Laboratories, Inc.), MASS-2 (Sierra sensors, Gmbh) or SPR-32 (Bruker Corporation). […] The phytip purified periplasmic extracts were diluted 1:10 in running buffer (CPA+150 mM NaCl+0.005% Tw20 at pH 5.5, pH 6.0 or pH 7.4) and injected over the ligand surfaces (association: 120 s at 45 μL/min; dissociation: 600s-3600 s at 45 μL/min). Experiments were carried out at 25° C.

[2] = target: T2, cyno FcRn/b2M (cyno, UniProt Q8SPV9 24-297; Q8SPW0 21-119, biotinylated); assay: SPR pH 6.0;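 note: surface plasmon resonance kinetics at 25 °C, diluted periplasmic extracts injected over immobilized ligand surfaces, 120 s association then 600–3600 s dissociation, running buffer containing 150 mM NaCl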
T2 construct: bought recombinant biotinylated protein (Immunitrack ITF05 or ACRO FCM-C82W5); also called cFcRn; cFcRn/cb2M
T2 sequence (Q8SPV9 24-297 limits assumed, chain 1 of 2): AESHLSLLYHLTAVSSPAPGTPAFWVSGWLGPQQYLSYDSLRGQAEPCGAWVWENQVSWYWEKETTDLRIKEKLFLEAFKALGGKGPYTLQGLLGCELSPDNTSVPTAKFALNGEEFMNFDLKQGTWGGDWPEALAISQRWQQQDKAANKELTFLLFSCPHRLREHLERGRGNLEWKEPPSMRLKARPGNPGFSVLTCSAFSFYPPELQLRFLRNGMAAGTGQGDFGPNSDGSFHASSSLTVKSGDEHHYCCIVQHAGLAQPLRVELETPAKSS
T2 sequence (Q8SPW0 21-119 limits assumed, chain 2 of 2): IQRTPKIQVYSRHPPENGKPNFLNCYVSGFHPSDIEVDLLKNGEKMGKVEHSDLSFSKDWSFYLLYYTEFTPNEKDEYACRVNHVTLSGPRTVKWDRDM
Protocol: as §1

[3] = target: T1, human FcRn/b2M; assay: SPR pH 7.4;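 note: surface plasmon resonance kinetics, periplasmic extracts diluted 1:10 flowed over immobilized target at 25 °C, 120 s association then 600–3600 s dissociation, buffer with 150 mM NaCl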
Protocol: as §1

[4] = target: T2, cyno FcRn/b2M; assay: SPR pH 7.4;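 note: surface plasmon resonance kinetics, periplasmic extracts diluted 1:10 flowed over immobilized target at 25 °C, 120 s association then 600–3600 s dissociation, buffer with 150 mM NaCl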
Protocol: as §1

[5] = target: T1, human FcRn/b2M; assay: SPR off-rate; pH 7.4 vs pH 6.0;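 note: surface plasmon resonance with diluted periplasmic extracts flowed over ligand surfaces, 120 s association and 600–3600 s dissociation at 25 °C, running buffer containing 150 mM NaCl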
Protocol: as §1

[6] = target: T2, cyno FcRn/b2M; assay: SPR off-rate; pH 7.4 vs pH 6.0;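 note: surface plasmon resonance with diluted periplasmic extracts flowed over ligand surfaces, 120 s association and 600–3600 s dissociation at 25 °C, running buffer containing 150 mM NaCl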
Protocol: as §1

koff [1] | koff [2] | koff [3] | koff [4] | kd ratio pH 7.4/6.0 [5] | kd ratio pH 7.4/6.0 [6] | Binder
0.0013 s⁻¹ | 0.0011 s⁻¹ | 0.034 s⁻¹ | 0.04 s⁻¹ | 26 | 36 | T0263018B11 A33G (VHH, name in Kabat numbering, FLAG3-His6 tagged) VHH: EVQLVESGGGVVQPGGSLRLSCAASGFTFSSYGMYWVRQAPGKGLEWVSAISSGGGSTDYADSVKGRFTISRDNSKNTLYLQMNSLRPEDTALYYCAADTLYTSLTWYSYWGQGTLVTVSS
 | 0.00052 s⁻¹ | 0.046 s⁻¹ | 0.033 s⁻¹ |  |  | T0263018B11 T28A (VHH, name in Kabat numbering, FLAG3-His6 tagged) VHH: EVQLVESGGGVVQPGGSLRLSCAASGFAFSSYAMYWVRQAPGKGLEWVSAISSGGGSTDYADSVKGRFTISRDNSKNTLYLQMNSLRPEDTALYYCAADTLYTSLTWYSYWGQGTLVTVSS
 |  |  |  | 31 |  | T0263018B11 S56M (VHH, name in Kabat numbering, FLAG3-His6 tagged) VHH: EVQLVESGGGVVQPGGSLRLSCAASGFTFSSYAMYWVRQAPGKGLEWVSAISSGGGMTDYADSVKGRFTISRDNSKNTLYLQMNSLRPEDTALYYCAADTLYTSLTWYSYWGQGTLVTVSS
0.0021 s⁻¹ | 0.0017 s⁻¹ |  | 0.088 s⁻¹ |  |  | T0263018B11 F29Q (VHH, name in Kabat numbering, FLAG3-His6 tagged) VHH: EVQLVESGGGVVQPGGSLRLSCAASGFTQSSYAMYWVRQAPGKGLEWVSAISSGGGSTDYADSVKGRFTISRDNSKNTLYLQMNSLRPEDTALYYCAADTLYTSLTWYSYWGQGTLVTVSS
 | 0.00084 s⁻¹ | 0.033 s⁻¹ | 0.035 s⁻¹ |  |  | T0263018B11 T57Y (VHH, name in Kabat numbering, FLAG3-His6 tagged) VHH: EVQLVESGGGVVQPGGSLRLSCAASGFTFSSYAMYWVRQAPGKGLEWVSAISSGGGSYDYADSVKGRFTISRDNSKNTLYLQMNSLRPEDTALYYCAADTLYTSLTWYSYWGQGTLVTVSS
0.0025 s⁻¹ | 0.0018 s⁻¹ |  | 0.083 s⁻¹ |  |  | T0263018B11 Y32N (VHH, name in Kabat numbering, FLAG3-His6 tagged) VHH: EVQLVESGGGVVQPGGSLRLSCAASGFTFSSNAMYWVRQAPGKGLEWVSAISSGGGSTDYADSVKGRFTISRDNSKNTLYLQMNSLRPEDTALYYCAADTLYTSLTWYSYWGQGTLVTVSS
0.00074 s⁻¹ | 0.00069 s⁻¹ |  | 0.022 s⁻¹ |  |  | T0263018B11 S30M (VHH, name in Kabat numbering, FLAG3-His6 tagged) VHH: EVQLVESGGGVVQPGGSLRLSCAASGFTFMSYAMYWVRQAPGKGLEWVSAISSGGGSTDYADSVKGRFTISRDNSKNTLYLQMNSLRPEDTALYYCAADTLYTSLTWYSYWGQGTLVTVSS
 | 0.00099 s⁻¹ | 0.041 s⁻¹ | 0.045 s⁻¹ |  |  | T0263018B11 A33P (VHH, name in Kabat numbering, FLAG3-His6 tagged) VHH: EVQLVESGGGVVQPGGSLRLSCAASGFTFSSYPMYWVRQAPGKGLEWVSAISSGGGSTDYADSVKGRFTISRDNSKNTLYLQMNSLRPEDTALYYCAADTLYTSLTWYSYWGQGTLVTVSS
0.006 s⁻¹ | 0.0025 s⁻¹ |  | 0.18 s⁻¹ |  |  | T0263018B11 Y32M (VHH, name in Kabat numbering, FLAG3-His6 tagged) VHH: EVQLVESGGGVVQPGGSLRLSCAASGFTFSSMAMYWVRQAPGKGLEWVSAISSGGGSTDYADSVKGRFTISRDNSKNTLYLQMNSLRPEDTALYYCAADTLYTSLTWYSYWGQGTLVTVSS
0.00075 s⁻¹ | 0.0002 s⁻¹ |  | 0.028 s⁻¹ |  |  | T0263018B11 T28G (VHH, name in Kabat numbering, FLAG3-His6 tagged) VHH: EVQLVESGGGVVQPGGSLRLSCAASGFGFSSYAMYWVRQAPGKGLEWVSAISSGGGSTDYADSVKGRFTISRDNSKNTLYLQMNSLRPEDTALYYCAADTLYTSLTWYSYWGQGTLVTVSS
0.0089 s⁻¹ | 0.0026 s⁻¹ |  | 0.036 s⁻¹ |  |  | T0263018B11 D58A (VHH, name in Kabat numbering, FLAG3-His6 tagged) VHH: EVQLVESGGGVVQPGGSLRLSCAASGFTFSSYAMYWVRQAPGKGLEWVSAISSGGGSTAYADSVKGRFTISRDNSKNTLYLQMNSLRPEDTALYYCAADTLYTSLTWYSYWGQGTLVTVSS
0.0018 s⁻¹ | 0.0027 s⁻¹ | 0.065 s⁻¹ | 0.13 s⁻¹ | 36 | 48 | T0263018B11 A33Q (VHH, name in Kabat numbering, FLAG3-His6 tagged) VHH: EVQLVESGGGVVQPGGSLRLSCAASGFTFSSYQMYWVRQAPGKGLEWVSAISSGGGSTDYADSVKGRFTISRDNSKNTLYLQMNSLRPEDTALYYCAADTLYTSLTWYSYWGQGTLVTVSS
0.00076 s⁻¹ | 0.00077 s⁻¹ |  | 0.037 s⁻¹ |  |  | T0263018B11 A33H (VHH, name in Kabat numbering, FLAG3-His6 tagged) VHH: EVQLVESGGGVVQPGGSLRLSCAASGFTFSSYHMYWVRQAPGKGLEWVSAISSGGGSTDYADSVKGRFTISRDNSKNTLYLQMNSLRPEDTALYYCAADTLYTSLTWYSYWGQGTLVTVSS
0.00025 s⁻¹ | 0.00021 s⁻¹ |  | 0.0099 s⁻¹ |  |  | T0263018B11 S100A (VHH, name in Kabat numbering, FLAG3-His6 tagged) VHH: EVQLVESGGGVVQPGGSLRLSCAASGFTFSSYAMYWVRQAPGKGLEWVSAISSGGGSTDYADSVKGRFTISRDNSKNTLYLQMNSLRPEDTALYYCAADTLYTALTWYSYWGQGTLVTVSS
0.00098 s⁻¹ | 0.0007 s⁻¹ |  | 0.027 s⁻¹ |  |  | T0263018B11 T57M (VHH, name in Kabat numbering, FLAG3-His6 tagged) VHH: EVQLVESGGGVVQPGGSLRLSCAASGFTFSSYAMYWVRQAPGKGLEWVSAISSGGGSMDYADSVKGRFTISRDNSKNTLYLQMNSLRPEDTALYYCAADTLYTSLTWYSYWGQGTLVTVSS
 | 0.00036 s⁻¹ | 0.045 s⁻¹ | 0.031 s⁻¹ |  |  | T0263018B11 F27I (VHH, name in Kabat numbering, FLAG3-His6 tagged) VHH: EVQLVESGGGVVQPGGSLRLSCAASGITFSSYAMYWVRQAPGKGLEWVSAISSGGGSTDYADSVKGRFTISRDNSKNTLYLQMNSLRPEDTALYYCAADTLYTSLTWYSYWGQGTLVTVSS
0.0013 s⁻¹ | 0.0011 s⁻¹ |  | 0.04 s⁻¹ |  |  | T0263018B11 T57G (VHH, name in Kabat numbering, FLAG3-His6 tagged) VHH: EVQLVESGGGVVQPGGSLRLSCAASGFTFSSYAMYWVRQAPGKGLEWVSAISSGGGSGDYADSVKGRFTISRDNSKNTLYLQMNSLRPEDTALYYCAADTLYTSLTWYSYWGQGTLVTVSS
0.00073 s⁻¹ | 0.00063 s⁻¹ |  | 0.026 s⁻¹ |  |  | T0263018B11 T57D (VHH, name in Kabat numbering, FLAG3-His6 tagged) VHH: EVQLVESGGGVVQPGGSLRLSCAASGFTFSSYAMYWVRQAPGKGLEWVSAISSGGGSDDYADSVKGRFTISRDNSKNTLYLQMNSLRPEDTALYYCAADTLYTSLTWYSYWGQGTLVTVSS
0.0026 s⁻¹ | 0.0019 s⁻¹ |  | 0.1 s⁻¹ |  |  | T0263018B11 S56E (VHH, name in Kabat numbering, FLAG3-His6 tagged) VHH: EVQLVESGGGVVQPGGSLRLSCAASGFTFSSYAMYWVRQAPGKGLEWVSAISSGGGETDYADSVKGRFTISRDNSKNTLYLQMNSLRPEDTALYYCAADTLYTSLTWYSYWGQGTLVTVSS
 | 0.00087 s⁻¹ | 0.041 s⁻¹ | 0.054 s⁻¹ |  |  | T0263018B11 G26L (VHH, name in Kabat numbering, FLAG3-His6 tagged) VHH: EVQLVESGGGVVQPGGSLRLSCAASLFTFSSYAMYWVRQAPGKGLEWVSAISSGGGSTDYADSVKGRFTISRDNSKNTLYLQMNSLRPEDTALYYCAADTLYTSLTWYSYWGQGTLVTVSS
0.0025 s⁻¹ | 0.0019 s⁻¹ |  | 0.12 s⁻¹ |  |  | T0263018B11 A93T (VHH, name in Kabat numbering, FLAG3-His6 tagged) VHH: EVQLVESGGGVVQPGGSLRLSCAASGFTFSSYAMYWVRQAPGKGLEWVSAISSGGGSTDYADSVKGRFTISRDNSKNTLYLQMNSLRPEDTALYYCTADTLYTSLTWYSYWGQGTLVTVSS
0.014 s⁻¹ | 0.0084 s⁻¹ |  | 0.21 s⁻¹ |  |  | T0263018B11 T96G (VHH, name in Kabat numbering, FLAG3-His6 tagged) VHH: EVQLVESGGGVVQPGGSLRLSCAASGFTFSSYAMYWVRQAPGKGLEWVSAISSGGGSTDYADSVKGRFTISRDNSKNTLYLQMNSLRPEDTALYYCAADGLYTSLTWYSYWGQGTLVTVSS
0.00086 s⁻¹ | 0.00071 s⁻¹ |  | 0.026 s⁻¹ |  |  | T0263018B11 T57R (VHH, name in Kabat numbering, FLAG3-His6 tagged) VHH: EVQLVESGGGVVQPGGSLRLSCAASGFTFSSYAMYWVRQAPGKGLEWVSAISSGGGSRDYADSVKGRFTISRDNSKNTLYLQMNSLRPEDTALYYCAADTLYTSLTWYSYWGQGTLVTVSS
0.00062 s⁻¹ | 0.00029 s⁻¹ |  | 0.015 s⁻¹ |  |  | T0263018B11 S100W (VHH, name in Kabat numbering, FLAG3-His6 tagged) VHH: EVQLVESGGGVVQPGGSLRLSCAASGFTFSSYAMYWVRQAPGKGLEWVSAISSGGGSTDYADSVKGRFTISRDNSKNTLYLQMNSLRPEDTALYYCAADTLYTWLTWYSYWGQGTLVTVSS
 | 0.00089 s⁻¹ | 0.044 s⁻¹ | 0.051 s⁻¹ |  |  | T0263018B11 S52aD (VHH, name in Kabat numbering, FLAG3-His6 tagged) VHH: EVQLVESGGGVVQPGGSLRLSCAASGFTFSSYAMYWVRQAPGKGLEWVSAISDGGGSTDYADSVKGRFTISRDNSKNTLYLQMNSLRPEDTALYYCAADTLYTSLTWYSYWGQGTLVTVSS
0.00076 s⁻¹ | 0.00055 s⁻¹ |  | 0.024 s⁻¹ |  |  | T0263018B11 T57E (VHH, name in Kabat numbering, FLAG3-His6 tagged) VHH: EVQLVESGGGVVQPGGSLRLSCAASGFTFSSYAMYWVRQAPGKGLEWVSAISSGGGSEDYADSVKGRFTISRDNSKNTLYLQMNSLRPEDTALYYCAADTLYTSLTWYSYWGQGTLVTVSS
